Where no end group is shown, it is not given here.
Tested on: WT mice
Experiment: P1 treatment of WT littermates in the efficacy study
Assay type: in vivo, mouse
Description: FIG. 31A-31F: For each of FIG. 31A-31F, data is shown reflecting the results of 3 separate studies (i.e., “Batch 1+2+3”) conducted under identical conditions; “veh” refers to the vehicle saline control. For each of FIG. 31A-31C at week 6, WT: n=15; WT+P1: n=15; R62 veh: n=22; R62+HV3-TAT: n=32; and R62+P1: n=16. For each of FIG. 31D-31F at week 6, WT: n=15; WT+P1: n=15; R62 veh: n=17; R62+HV3-TAT: n=30; and R62+P1: n=13. FIG. 31A depicts the average percent of body weight gain for mice subjected to each treatment. From top to bottom, the week 13 data points correspond to: WT+P1 (˜43%); WT (˜39%); R62+P1 (˜1%); R62+HV3-TAT (˜ 4%); and R62 (˜-9%). […]
In vivo Efficacy Methods—Behavioral Analysis: All experiments in animals were conducted in accordance with protocols approved by the Institutional Animal Care and Use Committee of Northwestern University and were performed based on the National Institutes of Health Guide for the Care and Use of Laboratory Animals. […] Accordingly, hindlimb clasping was assessed with the tail suspension test weekly from the ages 7 to 13 weeks in R6/2 mice and WT littermates. Mice were suspended by the tail for 60 sec and the latency for the hindlimbs or all four paws to clasp was recorded using the following score system: clasping over 10 sec, score 3; 5-10 sec, score 2; 0-5 sec, score 1; 0 sec, score 0. […]

P1: PLP homopolymer having peptide side chains of SEQ ID: 1 (HVLVMSATRR), made by ROMP of norbornene peptide monomer M1 (also: side chains of polynorbornene homopolymer (PLP, ROMP of norbornene peptide monomer))
survival rate (WT mice): 100%
effects on motor ability, body weight, or neuropathology (mouse, in vivo): no significant effects

Source: patent US20240110004A1 (Northwestern University, priority 2022, published 2024)
